One molecule from paper PMC11199706 can be followed below.

Usually EC50 stands for the concentration needed to bring the measured effect to its halfway point.

In experiment [1] the target is NOPLight (human (NOPR part)). The experiment is described as follows: fluorescence response of the sensor on cells (line-scan confocal imaging, kinetics); NOPLight on HEK293T cells, 37 °C, N/OFQ applied in bolus with Red-Dextran dye, line scan at 800 Hz, mono-exponential association fit.
In experiment [2] the target is NOPLight (human (NOPR part)). The experiment is described as follows: fluorescence response of the sensor on cells (wash-off kinetics); NOPLight on HEK293T cells on coverslips, 37 °C HBSS, 500 nM N/OFQ bath-applied, perfusion turned on after 30 s, mono-exponential decay fit.
The target of experiment [3] is NOPLight (human (NOPR part)). Put plainly: fluorescence response of the sensor on cells (confocal imaging); sensor on transfected HEK293T cells in HBSS, ligand pipetted in at one concentration (1 µM where stated), ΔF/F0 of membrane pixels.
The target of experiment [4] is NOPLight (human (NOPR part)). The experiment is described as follows: other fluorescence titration; apparent; NOPLight on AAV-transduced cultured rat cortical neurons in HBSS, N/OFQ applied manually during confocal imaging (20x), normalised ΔF/F0 fitted with a three-parameter Hill equation.
The target of experiment [5] is NOPLight (human (NOPR part)). The experiment is described as follows: other fluorescence titration; apparent; NOPLight on transfected HEK293T cells in HBSS, N/OFQ applied manually during confocal imaging (20x), normalised ΔF/F0 fitted with a three-parameter Hill equation.
Experiment [6] has as its target NOPLight (human (NOPR part)). Put plainly: fluorescence response of the sensor on cells (confocal imaging); sensor on AAV-transduced cultured rat cortical neurons in HBSS, 1 µM N/OFQ, ΔF/F0 of membrane pixels.
In experiment [7] the target is NOPLight (human (NOPR part)). The experiment is described as follows: fluorescence response of the sensor in acute brain slices (off kinetics); NOPLight expressed in mouse brain (AAV), slices at 31 °C in aCSF, 50 nL of N/OFQ at 10, 50 or 500 nM puffed onto the slice.
The target in experiment [8] is NOPLight (human (NOPR part)). Put plainly: fluorescence response of the sensor on cells (wash-off kinetics); NOPLight on HEK293T cells under constant perfusion with 37 °C HBSS, about 50 nL of 100 µM N/OFQ puffed onto the cells, mono-exponential decay fit.
The target of experiment [9] is NOPLight (human (NOPR part)). The experiment is described as follows: fluorescence response of the sensor in acute brain slices; NOPLight expressed in the mouse arcuate nucleus (AAV), coronal slices perfused with aCSF pH 7.2, increasing N/OFQ (5 nM to 10 µM) bath-applied for 10 min each.

FGGFTGARKSARKLANQ [nociceptin/orphanin-FQ peptide] gave a τON (time constant of signal activation) in experiment [1] of 595 ms. Moreover, the τoff (bath application) in experiment [2] was found to be 57.1 s. Moreover, the ΔF/F0 upon N/OFQ (1 µM) in experiment [3] is 388%. Moreover, in experiment [4], the EC50 stood at 42.8 nM. Besides, in [5], the concentration giving a half-maximal response (EC50) amounted to 28.6 nM. The molecule further displayed a ΔF/F0 upon N/OFQ (1 µM) in experiment [6] of 378%. For the same molecule, in experiment [7], the τoff at 10 nM N/OFQ was determined as 30.9 s, the τoff at 50 nM N/OFQ worked out at 41.1 s and the τoff at 500 nM N/OFQ turned out to be 53.1 s. For the same molecule, the τoff (localized puff application) in experiment [8] worked out at 29.9 s. In experiment [9], this molecule gave a ΔF/F0 at 10 nM N/OFQ of 1.9% and a ΔF/F0 at 10 µM N/OFQ of 73%.
